Source: article PMC10949331, “Labile assembly of a tardigrade protein induces biostasis” (Protein Science : A Publication of the Protein Society, 2024)

Biological target: the molecule itself
Assay: cross-linking; 1 mg/mL of each protein with increasing BS3 amine ester crosslinker (0.8-8 mM), 30 min at room temperature; denaturing SDS-PAGE, Coomassie blue

B1: Cytoplasmic Abundant Heat Soluble protein D (CAHS D), wild type (natural protein, Hypsibius exemplaris, UniProt P0CU50 1-227, looked up)
chain: MSGRNVESHMERNEKVVVNNSGHADVKKQQQQVEHTEFTHTEVKAPLIHPAPPIISTGAAGLAEEIVGQGFTASAARISGGTAEIHLQPSAAMTEEARRDQERYRQEQESIAKQQEREMEKKTEAYRKTAEAEAEKIRKELEKQHARDVEFRKDLIESTIDRQKREVDLEAKMAKRELDREGQLAKEALERSRLATNVEVNFDSAAGHTVSGGTTVSTSDKMEIKRN
notes: CAHS D of the tardigrade Hypsibius exemplaris, 227 residues, UniProt P0CU50; Cloned into pET28b; also called CAHS8_HYPEX; CAHS 94063; source: E. coli BL21 (DE3), purified (heat lysis, cation exchange in 8 M urea, dialysis, lyophilised)
binding result: binds
